The chains are these.
B1: Protein PTHB1 (Homo sapiens), Q3SYG4 (parent)
chain: MSLFKARDWWSTILGDKEEFDQGCLCLANVDNSGNGQDKIIVGSFMGYLRIFSPHPAKTGDGAQAEDLLLEVDLRDPVLQVEVGKFVSGTEMLHLAVLHSRKLCVYSVSGTLGNVEHGNQCQMKLMYEHNLQRTACNMTYGSFGGVKGRDLICIQSMDGMLMVFEQESYAFGRFLPGFLLPGPLAYSSRTDSFLTVSSCQQVESYKYQVLAFATDADKRQETEQQKLGSGKRLVVDWTLNIGEQALDICIVSFNQSASSVFVLGERNFFCLKDNGQIRFMKKLDWSPSCFLPYCSVSEGTINTLIGNHNNMLHIYQDVTLKWATQLPHIPVAVRVGCLHDLKGVIVTLSDDGHLQCSYLGTDPSLFQAPNVQSRELNYDELDVEMKELQKIIKDVNKSQGVWPMTEREDDLNVSVVVSPNFDSVSQATDVEVGTDLVPSVTVKVTLQNRVILQKAKLSVYVQPPLELTCDQFTFEFMTPDLTRTVSFSVYLKRSYTPSELEGNAVVSYSRPTDRNPDGIPRVIQCKFRLPLKLICLPGQPSKTASHKITIDTNKSPVSLLSLFPGFASQSDDDQVNVMGFHFLGGARITVLASKTSQRYRIQSEQFEDLWLITNELILRLQEYFEKQGVKDFACSFSGSIPLQEYFELIDHHFELRINGEKLEELLSERAVQFRAIQRRLLARFKDKTPAPLQHLDTLLDGTYKQVIALADAVEENQGNLFQSFTRLKSATHLVILLIALWQKLSADQVAILEAAFLPLQEDTQELGWEETVDAAISHLLKTCLSKSSKEQALNLNSQLNIPKDTSQLKKHITLLCDRLSKGGRLCLSTDAAAPQTMVMPGGCTTIPESDLEERSVEQDSTELFTNHRHLTAETPRPEVSPLQGVSE
partner: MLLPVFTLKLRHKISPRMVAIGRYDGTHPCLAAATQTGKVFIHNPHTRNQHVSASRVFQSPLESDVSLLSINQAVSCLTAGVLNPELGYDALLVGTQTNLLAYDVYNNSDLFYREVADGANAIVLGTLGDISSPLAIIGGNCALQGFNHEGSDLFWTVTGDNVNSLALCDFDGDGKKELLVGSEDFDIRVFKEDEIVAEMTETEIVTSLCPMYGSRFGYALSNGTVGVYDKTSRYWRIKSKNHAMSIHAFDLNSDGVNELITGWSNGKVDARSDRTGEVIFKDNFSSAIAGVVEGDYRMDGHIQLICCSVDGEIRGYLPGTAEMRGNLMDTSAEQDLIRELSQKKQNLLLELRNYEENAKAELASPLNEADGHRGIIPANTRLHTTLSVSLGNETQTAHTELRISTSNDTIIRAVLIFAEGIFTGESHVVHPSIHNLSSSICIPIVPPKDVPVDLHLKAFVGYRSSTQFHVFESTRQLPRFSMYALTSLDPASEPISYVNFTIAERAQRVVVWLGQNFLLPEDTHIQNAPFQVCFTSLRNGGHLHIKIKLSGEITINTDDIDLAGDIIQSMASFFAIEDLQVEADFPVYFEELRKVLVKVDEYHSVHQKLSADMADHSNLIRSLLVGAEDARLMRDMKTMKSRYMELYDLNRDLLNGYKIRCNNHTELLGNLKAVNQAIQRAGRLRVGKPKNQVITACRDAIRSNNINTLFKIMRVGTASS

Variants of B1 are the subject of the test. As to conditions: with bbs2_human BBS2, Q9BXC9.
Turning to P520A, the “effect of a mutation on the interaction” value was “with no effect”.
On to P520K, for which the “effect of a mutation on the interaction” value is listed as “with no effect”.
P520E: the “effect of a mutation on the interaction” value is “with no effect”.
M477K: the “effect of a mutation on the interaction” value is reported as “with no effect”.
In the case of M477E, the “effect of a mutation on the interaction” value is given as “with no effect”.
Regarding M477A, the “effect of a mutation on the interaction” value was “with no effect”.
The entry for F487E is “with no effect”.
Consider F487K, for which the “effect of a mutation on the interaction” value was “with no effect”.
Turning to F487A, the “effect of a mutation on the interaction” value is “with no effect”.
To V505E belongs “with no effect”; to V505A, “with no effect”.
The entry for V505K is “with no effect”; for V506A it is “with no effect”; for V506K it is “with no effect”.
V506E: the “effect of a mutation on the interaction” value is on record as “with no effect”.
With P497K, the “effect of a mutation on the interaction” value was “with no effect”.
As for P497A, the “effect of a mutation on the interaction” value was “with no effect”.
The entry for P497E is “with no effect”; for F472A it is “with no effect”; for F472E it is “with no effect”.
Consider F472K, for which the “effect of a mutation on the interaction” value is listed as “with no effect”.
S486N: the “effect of a mutation on the interaction” value is “disrupting interaction strength”.
For S486R, the “effect of a mutation on the interaction” value is on record as “disrupting interaction strength”.
The entry for S486A is “with no effect”; for S486E it is “with no effect”; for S486K it is “with no effect”.
Turning to E501A, the “effect of a mutation on the interaction” value is given as “with no effect”.
Regarding E501K, the “effect of a mutation on the interaction” value is recorded as “with no effect”.
Turning to P530E, the “effect of a mutation on the interaction” value was “with no effect”.
Take P530A: the “effect of a mutation on the interaction” value is listed as “with no effect”.
Take P530K: the “effect of a mutation on the interaction” value is “with no effect”.
In the case of P530L, the “effect of a mutation on the interaction” value is on record as “disrupting interaction strength”.
L500K: the “effect of a mutation on the interaction” value is on record as “with no effect”.
Take L500E: the “effect of a mutation on the interaction” value is recorded as “with no effect”.
For the variant L500A, the “effect of a mutation on the interaction” value was “with no effect”.
To Q524K belongs “with no effect”; to Q524A, “with no effect”; to Q524E, “with no effect”.
Regarding V485K, the “effect of a mutation on the interaction” value is “with no effect”.
Take V485E: the “effect of a mutation on the interaction” value is on record as “with no effect”.
The entry for V485A is “with no effect”; for P511E it is “with no effect”.
As to P511A, the “effect of a mutation on the interaction” value is given as “with no effect”.
To P511K belongs “with no effect”.
For S498A, the “effect of a mutation on the interaction” value was “with no effect”.
The entry for S498K is “with no effect”; for S498E it is “with no effect”; for S498L it is “disrupting interaction strength”.
The entry for V489A is “with no effect”; for V489E it is “with no effect”.
For V489K, the “effect of a mutation on the interaction” value is reported as “with no effect”.
For K492A, the “effect of a mutation on the interaction” value is “with no effect”.
The entry for K492E is “with no effect”; for R528K it is “with no effect”; for R528A it is “with no effect”.
Regarding R528E, the “effect of a mutation on the interaction” value is listed as “with no effect”.
The entry for K526E is “with no effect”; for K526A it is “with no effect”; for T478I it is “disrupting interaction strength”.
For T478A, the “effect of a mutation on the interaction” value is “with no effect”.
Turning to T478E, the “effect of a mutation on the interaction” value is given as “with no effect”.
Regarding T478K, the “effect of a mutation on the interaction” value is “with no effect”.
Turning to N503K, the “effect of a mutation on the interaction” value is given as “with no effect”.
N503E: the “effect of a mutation on the interaction” value is reported as “with no effect”.
Take N503A: the “effect of a mutation on the interaction” value is recorded as “with no effect”.
Regarding D517K, the “effect of a mutation on the interaction” value is “with no effect”.
The entry for D517E is “with no effect”; for D517A it is “with no effect”.
To T512K belongs “with no effect”.
As to T512A, the “effect of a mutation on the interaction” value is “with no effect”.
For the variant T512E, the “effect of a mutation on the interaction” value was “with no effect”.
As to I519E, the “effect of a mutation on the interaction” value is “with no effect”.
In the case of I519K, the “effect of a mutation on the interaction” value is listed as “with no effect”.
The entry for I519A is “with no effect”; for A504E it is “with no effect”; for A504K it is “with no effect”.
Turning to T473K, the “effect of a mutation on the interaction” value is reported as “with no effect”.
The entry for T473A is “with no effect”; for T473E it is “with no effect”.
Regarding C525K, the “effect of a mutation on the interaction” value is “with no effect”.
As to C525E, the “effect of a mutation on the interaction” value is on record as “with no effect”.
With C525A, the “effect of a mutation on the interaction” value is on record as “with no effect”.
With L481K, the “effect of a mutation on the interaction” value is “with no effect”.
Turning to L481E, the “effect of a mutation on the interaction” value was “with no effect”.
As for L481A, the “effect of a mutation on the interaction” value is reported as “with no effect”.
To T496K belongs “with no effect”.
The entry for T496A is “with no effect”; for T496E it is “with no effect”.
I523E: the “effect of a mutation on the interaction” value is recorded as “with no effect”.
As to I523K, the “effect of a mutation on the interaction” value was “with no effect”.
In the case of I523A, the “effect of a mutation on the interaction” value is “with no effect”.
In the case of R510E, the “effect of a mutation on the interaction” value was “with no effect”.

For the origin of these results see IntAct's records for PubMed 29039417.
